Measurements reported in the DeepSol protein solubility set.

Assay: soluble on expression in E. coli; label from the status in PepcDB or PDB records

| Sequence | soluble on expression in E. coli |
| --- | --- |
| SILATPILIPENQRPPFPRSVGKVIRSEGTEGAKFRLSGKGVDQDPKGIFRINEISGDVSVTRPLDREAIANYQLEVEVTDLSGKIIDGPVRLDISVIDQNDNRPMFKEGPYVGHVMEGSPTGTTVMRMTAFDADDPSTDNALLRYNILKQTPTKPSPNMFYIDPEKGDIVTVVSPVLLDRETMETPKYELVIEAKDMGGHDVGLTGTATATILIDD | soluble |
| MPAINAKRVYRIMRQNALLLERKPAVPPSKRAHTGRVAVKESNQRWCSDGFEFCCDNGERLRVTFALDCCDREALHWAVTTGGFNSETVQDVMLGAVERRFGNDLPSSPVEWLTDNGSCYRANETRQFARMLGLEPKNTAVRSPESNGIAESFVKTIKRDYISIMPKPDGLTAAKNLAEAFEHYNEWHPHSALGYRSPREYLRQRACNGLSDNRCLEILEHHHHHH | soluble |
| SENLYFQGSANAVCQRCQARFSPAERIVNSNGELYHEHCFVCAQCFRPFPEGLFYEFEGRKYCEHDFQMLFA | soluble |
| MTLHLPGADGTLRAYEPRTEPLPTLRATSGSAFSSRTVFSAAHVVADPYADTTPDGPAAVDWDATLAFRRHLWSHGLGVAEAMDTAQRGMGLDWPTAAELIRRSAAEARATGGRIACGVGTDQLTATAATLADVRSAYEEQLAVVEESGAQAILMASRALAATAKGPDDYLEVYGHLLRQAAEPVILHWLGPMFDPALEGYWGSSDLDAATDTFLEVIAAHPDKVDGIKVSLLDAQREIDLRRRLPRGVRCYTGDDFNYPELIAGDEQGFSHALLGIFDPLGPLAAEAVRVLDTGDTDGFRALLDPTVELSRHLFRAPTRYYKTGVVFLAWLAGHQSHFTMVGGLQSARSLPHLARAYELADGLGLFPDPKPAEERMRNLLALYGVN | not soluble |
| MGSDKIHHHHHHMNILIKIRELTNLTNSEKELANYIVVNPKKTLQFKPKELAQAAFVSAATIYRLINKLGLNGIGELKIEIASSLRETNEEKEINYDYPILESDTPYQIMTNLNQIYKGTIDETLNNADPEELVKIGEKLIKAKTIDVYAASANLFFAQNFKFQMQEIGVLVNVPEEDYIQSLSAANSDKDHIAIVVSYGGRSRTLQRVVKILSENDVDIILITSMQANPLVEFATHKIYMASAENHYNKVSSFSTRQSLLSIFDTLYSVYFNHDYEKNIQYKTTNYQKMNSELE | not soluble |
| MLRHSPSLWELVEEHVPLRERREVKRILGEAAVDLSLELRAEVAMLRALLQEARSSQAPSSRPISDPSSLLAPPPLLKDLLRQELRQLLQGLRHKAICEGRDQAQAWVQYSPRVLHFALEEPRCDLPEQEIFQMRGGGPSSGHRDLSIIKDQLNVSNIDQVARHLRGLLEEECHTLEREILILQRCLEEEYLRPCHPSEAALEPTLAELKEQKKAMEQELQASVGPSCVSPNHRQRPLGSSTQGLRPPLPLCGVAPLQCCLPAPPLEPYLRPRGQSATHRWGRQLQCSPREGPASTPMSSAAPQAPA | soluble |
| ARVDQTPRIATKETGESLTINCVLRDTACALDSTNWYRTKLGSTKEQTISIGGRYSETVDEGSNSASLTIRDLRVEDSGTYKCKAYRRCAFNTGVGYKEGAGTVLTVK | soluble |
| MRLALAVLILLLSIAPAMALCSYEVVEERYADPFTVDISSMPSLKDLPVDDPSDGIDWVKVPLPKPCVNGMGKDTFIMVRKGSSNNLLIFFEGGGACADYETCKPMLCTDLKSCKPLLGIGSVVALESNFCFLKLYYRGGIFDVKKAENPFRDWTIVFVPYNTGDLHMGNRVVRYFDDGKEKTIYHVGYVNAIVAMRWIKENGNFDRIVVAGSSAGGYATLLHGYTAWSIFGKPVTVINDAGPGINPDSDSKFQVNEIMERWGSKQNFPPEALQYFEGKDPAYAIEYFLDKCSDCVYGFFEDQKDLVIGSVFSAYWPWQFKTRLLKVTDELRDYSDRYCRFLPYDYQHTVLTGGLLYPLQKDRFYCEKVGGYRVYEWVKELLRGNCVDLVELEHHHHHH | not soluble |
| MGSDKIHHHHHHMLIEEIMKRNVVTIHEQTTIKEAYQTMILEKFRHLPVITKSKDVIGIVTDQDIRDASPSIFHQDEHQEDLQKPVSSIMTKDVITVHPLNSVAETARLLYENRISCLPVTEGEQLVGIVTDTDVLHTLVELMGAHQPSSQIYVRVENKAGQLADVAAIMKQRQMNIASVLVYPHREDERYKILAFRIQSMDPRGTISDLQSKGYHVLWPNIPGIAT | not soluble |
| MSLEHPLQRFFHSMRAKRPFDWVRFQRRDLLLIDHPLCQAVFSRQGAQLLHFQPQGERPLLWCAGEWPALSSAPVRGGIPVCWPWFGSHPNGSEWPQQGWARQREWRLLDAYADESKVVVSWQLDLEDWHVRLDARLGQRLELELCSYHEEDDDCLFSFALQPYWRVGALSRVVVHGMELESARGQRGASRIPGTWIPRGAVKQVLYHPGSLVLEDGGWNRRLRIDKNVSAGSVIWHPGSRPVEQVEPGEAERFLCIGAAGYRPGGLILAPGERMRLSLAAGLQEGHHHHHH | soluble |
| VDYSRTETLQFEDDEYYYYVKAVPKVGVTLPEKQVKHITEPHEEQPKEAKAAVNLKPEPMVQETVAIDTSQIQEADLEKNVDELLLTQSLNEELRQNQNEPEDDLSLTKSLGDLWTKKPGSGE | not soluble |
| MFEQIKNNVENAIEALKQGKPVVVLDDYDRENEGDLILPGQKATEENIAFMLEHTSGIICLAMDSKKARELNLTPMVAADQNNSTFTTPFTVTIEAKEGVTTGVSAKDRAHTIQVASKADSKAEELARPGHIFPLIANDKGVLGRNGHTEATVDLMKLSGFNSAGVLCELMNKDGTMMKAAELEAFAKKHDLPLLTIAELYQYRLATENFVTKMASSTIPFKKIGELEMSVYKDNFSGDEVVVLSKPYSGNNPLVRMHSSCITGDIFGSLRCDCQDQLHKGIEMISEEGGFFIYLDQEGRGIGLTNKLKAYNLQMNENMDTLEANLALGLPADARKYDLAIQVLKYNNVNRCRLISNNPEKLAALRNVDIETQPVYCEAFVNSHNRNYLITKKIKAKHTIKGI | not soluble |
| SYLYTLYSDVRTEVAKMERVAWLEVVGKFETEKLTPNSLYEVVFVVKLIDSAKGWDFRVNFKLVLPTGETKERRENVNLLERNKWVEIPAGEFMISPEHLSGKIEFSMLEVKSDQWKSGLIVKGVAIRPKN | soluble |
| MVKLMEVYEGKAKKMIPIDDDKLIMEFKDDATAFDGTKKARFKGKGWLNAQLSVIFFKLLEEHGIKTHFIGVAGGNRLIVEKLDMYPLEVVVRNVVAGSLKKRLPLPEGYELPEPIVELYYKNDELHDPMINYYHAKVLGISLDEIKKIEEIALKVNEILKDYLAKKGIILVDFKLEFGKDKNGDIVLADEISPDTCRFWDAKTKRSLDKDVFRFDKGDLIEAYKEIYERITGEKPEF | soluble |
| MGSDKIHHHHHHMTQQNGKVYLVGAGPGDVAYLTVKAYNLLATAQVLVYDALVDEQLLQCVSPDCLKLDVGKRGGKPSTPQADINHLLVKYCQEGALVVRLKSGDPFIFGRCTSEIEALKAAGCKFEVVPGISSSIAAPLLAGIPLTDPVMSRCFAVLTAHEPEVLDWEALSRLDTLVILMGGKNLADIINELLRRGQSHLTPIAIIRWAGTPSQQIWTGQLGDILEQTRGLSLSPAVIVIGEVVGLRKYLQPEKIFPENSTTPMSSNQPLTGKTILVTRSSGQSSQFSDRLTTLGATVIEMPALEIGSPSSWEELDQAIANLSQFEWLILTSTNGVDYFFERLNLQGKDTRALAGVKIAVVGEKTSQSLKQRGIQADFIPPNFVADSLVEHFPESLLNKKILFPRVESGGREILVKELSAKGAEVIEVAAYQSCCPSSIPPAAELALKNHTIDIITFASSKTVQFFHQLVDNIFPHNIPNTLAGICIASIGPQTSKTCHTLLGRVDVEAEEYTLDGLTQSIINWALKV | not soluble |
| SNAMARKKNTSDQSRSQAANTPIAGTYEGEYSVIELEADSYTTDGWLISINGVPSSHIVLGQPQALEFEYMRWIATGARAFIDAHQDASKLRITHLGGGACTMARYFADVYPQSRNTVVELDAELARLSREWFDIPRAPRVKIRVDDARMVAESFTPASRDVIIRDVFAGAITPQNFTTVEFFEHCHRGLAPGGLYVANCGDHSDLRGAKSELAGMMEVFEHVAVIADPPMLKGRRYGNIILMGSDTEFFSSNSTEASAITRELLGGGVPAQYKDESWVRKFASGAQARHDGVSTLQMPSDTPQHPAETPEHSNTQP | soluble |
| MSRLEIYSPEGLRLDGRRWNELRRFESSINTHPHAADGSSYMEQGNNKIITLVKGPKEPRLKSQMDTSKALLNVSVNITKFSKFERSKSSHKNERRVLEIQTSLVRMFEKNVMLNIYPRTVIDIEIHVLEQDGGIMGSLINGITLALIDAGISMFDYISGISVGLYDTTPLLDTNSLEENAMSTVTLGVVGKSEKLSLLLVEDKIPLDRLENVLAIGIAGAHRVRDLMDEELRKHAQKRVSNASAR | not soluble |
| MFQALLTKLKNNAALGAAANNLNKFRSSNLGNQRRSVSVAVTSTSPKSEKPVAREHMIYDETHFVMQKSLGKLIEEKINPNVAKWEQDGRYPAHLVFKMLGDHGVFGVNKPEAFGGTGTDIAMATAIAEQMGAINCGSIPMSVMVQTDMSTPALAQFGSDALRERFLRPSITGDLVSSLAVSEPHAGSDVSAVHTHARRQGSDLIINGSKMWITNGGQADWACVLVNTSNTSNVHKNKSLVCVPLDAVGVHRSTPLDKLGMRSSDTVQLFFEDVRVPSSYIIGEEGRGFGYQMKQFNDERLVTVAVGLLPLQKCIDETIEYARDRLLFGKTLLDQQYIQFQLAELEAELEATRALLYRTVLARSRGDDVSMLTAMAKLKIGRLARAITDQCLQVWGGAGYLNENGISRAFRDFRLFSIGAGCDEVMMRIIHKAQSRRQLKKA | not soluble |
| MSLSQIAVRTFHDIRAALLARRELALLDVREEDPFAQAHPLFAANLPLSRLELEIHARVPRRDTPITVYDDGEGLAPVAAQRLHDLGYSDVALLDGGLSGWRNAGGELFRDVNVPSKAFGELVEAERHTPSLAAEEVQALLDARAEAVILDARRFDEYQTMSIPGGISVPGAELVLRVAELAPDPRTRVIVNCAGRTRSIIGTQSLLNAGIPNPVAALRNGTIGWTLAGQQLEHGQTRRFGAISQDTRKAAAQRARAVADRAGVERLDLAGLAQWQDEHDRTTYLLDVRTPEEYEAGHLPGSRSTPGGQLVQETDHVASVRGARLVLVDDDGVRANMSASWLAQMGWQVAVLDGLSEADFSERGAWSAPLPRQPRADTIDPTTLADWLGEPGTRVLDFTASANYAKRHIPGAAWVLRSQLKQALERLGTAERYVLTCGSSLLARFAVAEVQALSGKPVFLLDGGTSAWVAAGLPTEDGESLLASPRIDRYRRPYEGTDNPREAMQGYLDWEFGLVEQLGRDGTHGFFVIEGGSHHHHHH | soluble |
| MAVRFIREDGDEILRKVSKKVDVIDERIKTLLDDMAETMYAANGVGLAAPQVGVLKRVVVIDVGDGLMELINPEIVEQEGEQIDIEGCLSIPGVAGEVKRPARVVVEALNREGEKITVEGKELLAVALCHEIDHLDGILFTDKVIRFIDEDEMERRRENKRRNKIRQNKG | not soluble |
| MGSDKIHHHHHHMSDANVSRLGQANLSGDAKALFLKVFSGEVLTAFQESCVTADKHLVRTITSGKSAQFPILGKISAQYHTPGAEIAGLSVPANEQIITIDDLLISHAFIASIDEAMNHYDVRGPYSTEMGRALSYTYDKHILQLGVLAARASAPVSTEAGGGSVTDSALLTDTTGEALVAALFAAAQKLDEKFIPADERYAYLTPAAYYMLAQNTKLMNSLWGGQGSYAKGELPQVAGISLVKAVHAPFGSNIATVANGGTALTAGTSDKYAVDATSTAALVMHKAAVGTVKLMDLAMESDYDIRRQGTLMVAKYAMGHGILRPAAAVELKTA | not soluble |
